What was measured:
[1] = biological target: T1, human CD269 (BCMA) on human multiple myeloma cells (MM.1S, RPMI-8226) (human, UniProt Q02223 1-184); experiment: flow cytometry on MM.1S cells
T1 construct: whole, on cells; also called BCMA-positive MM.1S cells; CD269-positive MM.1S cells
T1 sequence (looked up): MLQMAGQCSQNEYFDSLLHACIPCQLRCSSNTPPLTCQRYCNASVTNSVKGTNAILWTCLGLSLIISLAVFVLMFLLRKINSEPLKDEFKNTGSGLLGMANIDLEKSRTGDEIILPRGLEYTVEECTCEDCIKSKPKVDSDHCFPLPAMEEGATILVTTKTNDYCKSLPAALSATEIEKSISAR

[2] = biological target: T2, extracellular domain of human CD269 (BCMA, TNFRSF17) (human, UniProt Q02223 4-54); experiment: SPR, value printed beside the trace for 1.1 nM BCMA; neither a quantity name nor a unit is printed, and the five values average to the mean Kd of 54 pM of paragraph 196
T2 construct: also called hBCMA; human BCMA
T2 sequence: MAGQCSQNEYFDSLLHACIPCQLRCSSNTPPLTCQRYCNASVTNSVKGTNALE

[3] = biological target: T2, extracellular domain of human CD269 …; experiment: SPR; mean Kd of FIG. 1c, initial SPR characterisation (not the n = 3 series of Table 6)
[4] = biological target: T3, extracellular domain of cynomolgous BCMA (cynomolgus, UniProt A0A2K5UD97 1-53); experiment: ELISA on plates coated with cynomolgus BCMA (1 ug/ml), % of max
T3 construct: extracellular domain; also called cyBCMA; cynoBCMA
T3 sequence (A0A2K5UD97 entry or part of it): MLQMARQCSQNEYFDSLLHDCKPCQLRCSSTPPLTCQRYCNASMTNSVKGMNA
Procedure: (§1) ELISA was carried out as described herein using BCMA-coated microtiter plates (1 microg/ml).
(§2) Microtiter plates were coated with 1 μg/ml of the extracellular domain of human or cynomolgous BCMA (hBCMA or cyBCMA, respectively). Coated BCMA was detected with serial dilution of J22.9-xi, J22.9-H, J22.9-ISY and J22.9-FSY ranging from 0.26 pM to 500 nM. Binding of antibodies to the coated BCMA was detected with horseradish peroxidase (HRP)-conjugated goat anti-human secondary antibody (Jackson ImmunoResearch, 109-035-098, dilution 1:5,000).

[5] = biological target: T2, extracellular domain of human CD269 …; experiment: SPR, value printed beside the trace for 10.0 nM BCMA; neither a quantity name nor a unit is printed, and the five values average to the mean Kd of 54 pM of paragraph 196
[6] = biological target: T2, extracellular domain of human CD269 …; experiment: SPR, value printed beside the trace for 30.0 nM BCMA; neither a quantity name nor a unit is printed, and the five values average to the mean Kd of 54 pM of paragraph 196
[7] = biological target: T3, extracellular domain of cynomolgous BCMA; experiment: SPR, IgG immobilised, cynomolgus BCMA in mobile phase (n = 2)
Procedure: (§3) FIG. 12: SPR raw data: Binding affinities of the chimeric J22.9-xi and humanized variants to human (A) and cynomolgus (B) BCMA was measured by Surface Plasmon Resonance (SPR) Spectrometry. IgGs were immobilized via amine chemistry to a Proteon GLH sensor chip and binding measured with BCMA in the mobile phase. The order of raw data traces in the graph corresponds to the order to samples listed in the legend of the figure.
(§4) SPR was performed on a ProteonXPR36 using phosphate buffered saline supplemented with 0.005% Tween-20 (PBST). Whole IgG at a concentration of 15 ug/ml was immobilized to a Proteon GLH sensor chip using standard amine chemistry according to the manufacturer's instructions. For binding experiments, human or cynomolgus BCMA in PBST was used as the mobile phase.

[8] = biological target: T2, extracellular domain of human CD269 …; experiment: SPR, value printed beside the trace for 90.0 nM BCMA; neither a quantity name nor a unit is printed, and the five values average to the mean Kd of 54 pM of paragraph 196
[9] = biological target: T2, extracellular domain of human CD269 …; experiment: SPR, value printed beside the trace for 3.3 nM BCMA; neither a quantity name nor a unit is printed, and the five values average to the mean Kd of 54 pM of paragraph 196
[10] = biological target: T2, extracellular domain of human CD269 …; experiment: SPR, IgG immobilised, human BCMA in mobile phase (n = 3)
Procedure: as §3, §4

[11] = biological target: T2, extracellular domain of human CD269 …; experiment: ELISA on plates coated with human BCMA (1 ug/ml), % of max
Procedure: as §1, §2

[12] = biological target: T2, extracellular domain of human CD269 …; experiment: ELISA of hybridoma J22.9 supernatant on BCMA-coated microtiter plates at the given days of culture
[13] = biological target: T2, extracellular domain of human CD269 …; experiment: complex isolated by size exclusion chromatography and crystallised
Procedure: (Fab)₂ fragments were generated from full length J22.9-xi IgG by incubation with pepsin. J22.9-xi was passed over a PD-10 buffer exchange column into 50 mM sodium acetate, pH 3.5 and pepsin added at 30 μg per milligram J22.9-xi. Incubation at 37° C. for 2.5 hours was sufficient to completely digest the fragment crystallizable (Fc) region and pepsin was inactivated by exchange over a PD-10 column into PBS (pH 7.2). The reduction of the (Fab)₂ fragments to individual Fabs was accomplished in PBS by addition of 2-Mercaptoethylamine (50 mM) in the presence of 5 mM ethylenediaminetetraacetic acid (EDTA). After incubation for 90 minutes at 37° C., the reduced cysteines were blocked by alkylation with 500 μM iodoacetamide for 30 minutes followed by buffer exchange into fresh PBS. The Fab fragments were combined with 1.5 molar equivalents of purified BCMA and the complexes isolated by size exclusion chromatography on a Superdex 75 16/60 column.
Concentrated complexes were supplemented with 0.5 molar equivalents of pure BCMA to ensure saturation and were subjected to crystallization screening. Initial Fab:BCMA crystallization conditions were identified from commercial screens (Qiagen) in 96-well sitting drop format plates using a Gryphon pipetting robot (200 nl drops) and optimized in 24 well plates in hanging drops (2-3 ul). […]

B1: J22.9-xi-N-glycan (deglycosylated J22.9-xi) (antibody, human IgG1, V domains shown)
VH: QVQLQQSGGGLVQPGGSLKLSCAASGIDFSRYWMSWVRRAPGKGLEWIGEINPDSSTINYAPSLKDKFIISRDNAKNTLYLQMSKVRSEDTALYYCASLYYDYGDAMDYWGQGTSVTVSS
VL: DIVMTQSQRFMTTSVGDRVSVTCKASQSVDSNVAWYQQKPRQSPKALIFSASLRFSGVPARFTGSGSGTDFTLTISNLQSEDLAEYFCQQYNNYPLTFGAGTKLELKR
modifications: N-linked oligosaccharide chains at Asn297 of the heavy chain removed with PNGase F
notes: also called J22.9-xi without N-glycans
- binding result [1]: binds

B2: chimeric antibody J22.9-xi (antibody, V domains shown)
VH: B1 VH
VL: B1 VL
notes: Full length IgG made in 293-6E cells
- Kd [2]: 21 pM
- Kd [3]: 54 pM
- EC50 (read off the curve) [4]: ~200 pM
- Kd [5]: 55.5 pM
- Kd [6]: 69.5 pM
- Kd [7]: 2700 pM
- Kd [8]: 88 pM
- Kd [9]: 36.2 pM
- Kd [10]: 280 pM
- EC50 (read off the curve) [11]: ~200 pM

B3: antibody in the supernatant of mouse hybridoma J22.9 (antibody, V domains shown)
VH: B1 VH
VL: B1 VL
notes: Mouse antibody; also called hybridoma J22.9 supernatant
- binding result [12]: binds

B4: Fab fragment prepared from J22.9-xi (Fab, V domains shown)
VH: B1 VH
VL: B1 VL
modifications: reduced cysteines blocked by alkylation with iodoacetamide
notes: also called J22.9-xi Fab
- binding result [13]: binds
